This is an account of results in patent publication US20210115447, “NUCLEIC ACID APTAMERS TARGETING LYMPHOCYTE ACTIVATION GENE 3 (LAG-3) AND USES THEREOF” (Oneness Biotech Co., Ltd., published 2021).

By Kd is commonly meant the free concentration of one partner at which half of the binding sites on the other are occupied at equilibrium, for simple one-to-one binding.

Series [1] deals with T1, LAG-3 (lymphocyte activation gene 3) (Homo sapiens, UniProt P18627 P18627:23-450).
T1 sequence: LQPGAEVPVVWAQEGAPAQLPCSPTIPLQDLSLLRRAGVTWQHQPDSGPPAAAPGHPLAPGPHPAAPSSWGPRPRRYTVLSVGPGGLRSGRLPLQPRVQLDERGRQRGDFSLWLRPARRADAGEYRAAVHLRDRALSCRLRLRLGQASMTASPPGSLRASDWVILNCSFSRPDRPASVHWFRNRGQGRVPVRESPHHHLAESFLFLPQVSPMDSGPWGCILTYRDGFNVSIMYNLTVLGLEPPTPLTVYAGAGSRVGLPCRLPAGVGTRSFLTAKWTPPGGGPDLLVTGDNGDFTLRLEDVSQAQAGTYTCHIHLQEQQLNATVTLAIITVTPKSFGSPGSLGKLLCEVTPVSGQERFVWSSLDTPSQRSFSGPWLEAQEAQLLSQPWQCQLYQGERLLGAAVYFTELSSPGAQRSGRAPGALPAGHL
Kind of series: pulldown; His-LAG-3 on nickel beads, qPCR. The following applies: tags: His-tagged, attached to nickel coated beads or plate wells; label: 5'-biotin. The procedure: (§1) To directly test binding of LAG-3 aptamers to LAG-3, in vitro binding assays were performed using His-tagged recombinant LAG-3 attached to nickel coated beads or nickel coated wells of a plate. Bound LAG-3 aptamers were eluted and detected by qPCR. Using the bead based assay, binding of aptamers B4 and B8 to recombinant LAG-3 increased in a concentration dependent manner. FIG. 1C. […] FIG. 1D.
To identify the minimal sequence of aptamer B4 that is involved in binding to LAG-3, various truncated versions of aptamer B4 were prepared and their binding activities to LAG-3 were investigated in the binding assays described herein, using R9R as a negative control. Aptamer sequences of these truncated versions of aptamer B4 and their dissociation constants (Kds) for binding to recombinant LAG-3 are shown in Table 2. Binding of aptamers B4, B4-SL2, B4-SL3, and B4-SL4 to recombinant LAG-3 increased in a concentration dependent manner. FIG. 1E. […] FIG. 1E.

For series [2], the target named is T1, LAG-3 (lymphocyte activation gene 3). Kind of series: pulldown; concentration dependent; nickel beads, qPCR. The settings on record: tags: His-tagged, attached to nickel coated beads or plate wells. Here is the method:
as §1
Background: Quantitative PCR measures a nucleic acid by following its amplification.

Series [3] shares this target. Kind of series: pulldown; His-LAG-3 on nickel beads, bound aptamer eluted and detected by qPCR. The following applies: tags: His-tagged, attached to nickel coated beads or plate wells; label: 5'-biotin.

B1: 5'Bio-B4-SL4 (ssDNA)
DNA: CTGGGGGGGGTTAGTTCAATACATGCGGGCGGCCA
B1 came in with a dissociation constant (Kd) in series [1] of 9.47 nM.

B2: 5'Bio-B4-SL2 (ssDNA)
DNA: ACGGCGCTAACTGGGGGGGGTTAGTTCAATACATG
For the molecule B2, the dissociation constant (Kd) in series [1] came out at 8.05 nM.

B3: B8 (ssDNA)
DNA: TCCCTACGGCGCTAACTGGGGGGGGGTTAGACTTACACTCTTATTCGGCCACCGTGCTACAAC
As for B3, the binding result in series [2] is given as “binds”.

B4: 5'Bio-B4 (ssDNA)
DNA: TCCCTACGGCGCTAACTGGGGGGGGTTAGTTCAATACATGCGGGCGGCCACCGTGCTACAAC
As for B4, binding in series [3] was put at a Kd of 38.1 nM.

B5: 5'Bio-B4-SL3 (ssDNA)
DNA: GCTAACTGGGGGGGGTTAGTTCAATACATGCGGGC
Turning to B5, in series [1], the dissociation constant (Kd) came to 10.7 nM.
